Data on 4 proteins can be found in PMC7430982 (Proceedings of the National Academy of Sciences of the …, 2020).

The data set “cross-linking” concerns the molecule itself. As to the kind of experiment: cross-linking.
The data set “cryo-EM structure” concerns the molecule itself. Description: cryo-EM structure.
The data set “crystal structure” deals with the molecule itself. As to the kind of experiment: crystal structure.

Positions count from the first letter of the chain named. Names and notes keep the numbering of the source.

B1: NaAtm1 A527C (natural protein)
chain: MPPETATNPKDARHDGWQTLKRFLPYLWPADNAVLRRRVVGAILMVLLGKATTLALPFAYKKAVDAMTLGGGAQPALTVALAFVLAYALGRFSGVLFDNLRNIVFERVGQDATRHLAENVFARLHKLSLRFHLARRTGEVTKVIERGTKSIDTMLYFLLFNIAPTVIELTAVIVIFWLNFGLGLVTATILAVIAYVWTTRTITEWRTHLREKMNRLDGQALARAVDSLLNYETVKYFGAESREEARYASAARAYADAAVKSENSLGLLNIAQALIVNLLMAGAMAWTVYGWSQGKLTVGDLVFVNTYLTQLFRPLDMLGMVYRTIRQGLIDMAEMFRLIDTHIEVADVPNAPALVVNRPSVTFDNVVFGYDRDREILHGLSFEVAAGSRVAIVGPSGAGKSTIARLLFRFYDPWEGRILIDGQDIAHVTQTSLRAALGIVPQDSVLFNDTIGYNIAYGRDGASRAEVDAAAKGAAIADFIARLPQGYDTEVGERGLKLSGGEKQRVAIARTLVKNPPILLFDEATSCLDTRTEQDILSTMRAVASHRTTISIAHRLSTIADSDTILVLDQGRLAEQGSHLDLLRRDGLYAEMWARQAAESAEVSEAAE
modifications: disulfide between the two equivalent C527 residues of the dimer (crosslinking yield ~70%)
On to B1, for which the crosslinking yield in the data set “cross-linking” was approximately 70%.

B2: NaAtm1 (ABC transporter of mitochondria homolog from Novosphingobium aromaticivorans), wild type (natural protein)
chain: B1 chain with C527A
B2: the binding result in the data set “cryo-EM structure” was “binds”.

B3: NaAtm1 S526C (natural protein)
chain: B1 chain with S526C, C527A
modifications: disulfide between the two equivalent C526 residues of the dimer (crosslinking yield ~70%)
In “cross-linking”, B3 yielded a crosslinking yield of approximately 70%.

B4: NaAtm1 E523Q (ATP-hydrolysis-deficient Walker-B mutant) (natural protein)
chain: B1 chain with E523Q, C527A
With B4, the binding result in the data set “crystal structure” is on record as “binds”.
